The assay addresses thioredoxin (endogenous, mouse mediobasal hypothalamus extracts) (mouse) (UniProt P10639). Put plainly: cell-based or functional assay.
UniProt P10639, sequence (P10639 whole entry): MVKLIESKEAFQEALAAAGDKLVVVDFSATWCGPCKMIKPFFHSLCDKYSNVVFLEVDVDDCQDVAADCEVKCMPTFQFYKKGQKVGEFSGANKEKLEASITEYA

In turn, “thioredoxin-interacting protein (TXNIP), endogenous mouse (from UniProt Q8BG60 1-397)” gave a thioredoxin activity in the MBH (insulin-reducing assay) after TXNIP shRNA knockdown of 50 % increase. Take “human thioredoxin-interacting protein (hTXNIP) (from UniProt Q9H3M7 1-391)”: the thioredoxin activity in the MBH (insulin-reducing assay) (fold decrease) is 2.

Source of the values: patent publication US20130224222A1.
